Data: patent US8821836B2, “SPARC binding peptides and uses thereof” (Abraxis BioScience, LLC, priority 2008, dated 2014)

B1: ScFv 3-2: unique ScFv against SPARC from HuScL-3 library, among SEQ ID NOs: 113-116 (protein)
scFv: EIVMTQSPGTLSLSPGDRATLSCRASQSVSGYLAWYQQKPGQAPRLLIYDASNRATGIPARFSGSGSGTDFTLTISSLQAEDVAVYYCQQYYSTLPTFGQGTKLEIKRSGGSTITSYNVYYTKLSSSGTQVQLVQSGGGVVQPGRPLKLSCAASGFTFSSYAMHWVRQAPGKGLEWVAVISYDGSNKYYADSVKGRFTISRDNSKNTLYLQMNSLRAEDTAVYYCARDLSWNDAFDIWGQGTMVTVSSAS
B2: ScFv 2-1: unique ScFv against SPARC from HuScL-2 library, among SEQ ID NOs: 113-116 (protein)
scFv: EVQLLESGGGLVQPGGSLRLSCAASGFTFSSYAMSWVRQAPGKGLEWVSMITPLGSTTAYADSVKGRFTISRDNSKNTLYLQMNSLRAEDTAVYYCAKRAGVFDYWGQGTLVTVSSGGGGSGGGGSGGGGSTDIQMTQSPSSLSASVGDRVTITCRASQSISSYLNWYQQKPGKAPKLLIYRASTLQSGVPSRFSGSGSGTDFTLTISSLQPEDFATYYCQQNDSFPTTFGQGTKVEIKR
B3: ScFv 2-2: unique ScFv against SPARC from HuScL-2 library, among SEQ ID NOs: 113-116 (protein)
scFv: EVQLLESGGGLVQPGGSLRLSCAASGFTFSSYAMSWVRQAPGKGLEWVSHIQGQGRATYYADSVKGRFTISRDNSKNTLYLQMNSLRAEDTAVYYCAKTHGKFDYWGQGTLVTVSSGGGGSGGGGSGGGGSTDIQMTQSPSSLSASVGDRVTITCRASQSISSYLNWYQQKPGKAPKLLIYRASRLQSGVPSRFSGSGSGTDFTLTISSLQPEDFATYYCQQPSGVPTTFGQGTKVEIK

Target: T1, SPARC (Homo sapiens, UniProt P09486)
T1 sequence (P09486 18-303): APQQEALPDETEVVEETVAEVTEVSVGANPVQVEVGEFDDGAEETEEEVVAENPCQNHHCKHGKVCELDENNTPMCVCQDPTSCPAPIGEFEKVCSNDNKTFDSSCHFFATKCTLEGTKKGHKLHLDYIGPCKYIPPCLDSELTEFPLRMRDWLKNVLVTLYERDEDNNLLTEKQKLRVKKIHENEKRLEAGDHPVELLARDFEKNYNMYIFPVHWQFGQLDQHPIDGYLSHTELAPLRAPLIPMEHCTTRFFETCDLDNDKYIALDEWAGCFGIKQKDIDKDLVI
Assay: scFv phage display screening and soluble scFv ELISA with SPARC as antigen
Format: binding
Description: The overall strategy was to first, screen a human antibody phage display libraries by ELISA with SPARC as antigen.
At the start, HuScL-3® was screened four rounds (three rounds with acidic elution and one round with competitive elution) and 17 positive clones were selected by phage ELISA. […] After that, the binding specificity of the two unique antibodies was validated by soluble scFv ELISA.
Next, HuScL-2® was screened for three rounds (two rounds with trypsin-digestion elution and one round with competitive elution). In the end, 30 positive clones were selected by phage ELISA. According to the sequencing results, 29 clones shared one antibody sequence and the remaining one clone encoded another unique antibody. After that, the binding specificity of these two antibodies was validated by soluble scFv ELISA as well.

| Molecule | SPARC binding of scFv |
| --- | --- |
| B1 | SPARC binding activity |
| B2 | SPARC binding activity |
| B3 | SPARC binding activity |
